How the values were obtained:
[1] = substrate: Nc1ncnc2c1ncn2[C@@H]1O[C@H](COP(=O)(O)OP(=O)(O)OP(=O)(O)O)[C@@H](O)[C@H]1O; assay: NADH-coupled (pyruvate kinase / lactate dehydrogenase) spectrophotometric ATPase assay, Michaelis-Menten fit; type: biochemical, Bacillus subtilis; conditions: 15 nM PcrA, ATP 0.06 to 10 mM, ssDNA-dependent assay (circular pGEM3 Zf(+) ssDNA, 10 µM in nt, inferred from context), 10 mM Mg acetate, 80 mM NaCl, pH 7.5, 37 °C
PcrA [2] = target: T1, PcrA (Bacillus subtilis, UniProt O34580 1-739); assay: EMSA; 2.5 mM ATPgS, 3 mM Mg2+; apparent; unstable complexes; 20 mM Tris-HCl pH 7.5, 50 mM NaCl, 3 mM MgCl2, 4 mM DTT, 0.05 mg/mL BSA, 5% glycerol, 2.5 mM ATPgS, 0.1 nM 32P-labelled nucleic acid, 15 min, 37 C; conditions: protein: recombinant; tags: His6 removed (TAGZyme); label: 32P
T1 sequence: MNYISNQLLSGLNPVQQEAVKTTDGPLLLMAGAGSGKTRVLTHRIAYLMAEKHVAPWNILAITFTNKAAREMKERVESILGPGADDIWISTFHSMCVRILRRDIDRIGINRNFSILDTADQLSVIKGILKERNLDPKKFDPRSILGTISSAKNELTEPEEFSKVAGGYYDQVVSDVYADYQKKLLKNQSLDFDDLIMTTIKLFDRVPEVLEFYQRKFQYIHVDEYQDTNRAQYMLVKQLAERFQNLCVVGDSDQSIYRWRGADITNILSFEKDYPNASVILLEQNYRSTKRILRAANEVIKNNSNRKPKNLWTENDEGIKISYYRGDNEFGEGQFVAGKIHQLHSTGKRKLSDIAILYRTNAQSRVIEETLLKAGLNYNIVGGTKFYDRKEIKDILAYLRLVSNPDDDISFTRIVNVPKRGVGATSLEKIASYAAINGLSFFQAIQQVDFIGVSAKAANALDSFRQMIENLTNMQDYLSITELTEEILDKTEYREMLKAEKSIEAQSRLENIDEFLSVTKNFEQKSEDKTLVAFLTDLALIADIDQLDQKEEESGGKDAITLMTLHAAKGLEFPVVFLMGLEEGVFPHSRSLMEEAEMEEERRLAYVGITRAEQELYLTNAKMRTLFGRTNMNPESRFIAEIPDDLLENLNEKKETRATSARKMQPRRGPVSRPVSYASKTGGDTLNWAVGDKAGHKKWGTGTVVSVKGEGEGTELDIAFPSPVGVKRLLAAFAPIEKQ

PcrA [3] = target: T1, PcrA; assay: EMSA; 2.5 mM ATPgS, 3 mM Mg2+; four complexes; 20 mM Tris-HCl pH 7.5, 50 mM NaCl, 3 mM MgCl2, 4 mM DTT, 0.05 mg/mL BSA, 5% glycerol, 2.5 mM ATPgS, 0.1 nM 32P-labelled nucleic acid, 15 min, 37 C; conditions: protein: recombinant; tags: His6 removed (TAGZyme); label: 32P

B1: PcrA (Bacillus subtilis subsp. subtilis str. 168) (protein)
chain: T1 sequence
notes: full-length, His6-tagged from plasmid pCB1229 (pQE1) in E. coli M15 (pREP4), His-tag removed with TAGZyme; amounts as monomers
With B1 the Km [1] was 1500 ± 300 µM.

B2: 38-nt RNA (SM44R) (ssRNA)
RNA: GCUCUGAUGCCGCAUAGUUAAGCCAGCCCCGACACCCG
In the case of B2, the Kd (PcrA [2]) is reported as about 35 nM.

B3: 38-nt ssDNA (SM44D) (ssDNA)
DNA: GCTCTGATGCCGCATAGTTAAGCCAGCCCCGACACCCG
B3: binds (PcrA [3]).

Source: paper PMC8074105, “Bacillus subtilis PcrA Helicase Removes Trafficking Barriers” (Cells, 2021)
